Measured values reported in patent publication US20140213531A1 (POLYPHOR, published 2014).

T1: Chymase, from human skin (human, UniProt P23946 22-247)
T1 sequence (looked up): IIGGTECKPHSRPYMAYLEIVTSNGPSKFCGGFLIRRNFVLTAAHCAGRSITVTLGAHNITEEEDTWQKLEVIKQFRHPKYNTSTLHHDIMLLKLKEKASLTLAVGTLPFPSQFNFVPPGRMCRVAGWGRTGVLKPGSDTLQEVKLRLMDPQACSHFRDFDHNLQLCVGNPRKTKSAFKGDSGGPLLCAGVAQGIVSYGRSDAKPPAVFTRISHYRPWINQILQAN

T2: Elastase from human neutrophils (human, UniProt P08246 30-247, limits assumed)
T2 sequence (looked up): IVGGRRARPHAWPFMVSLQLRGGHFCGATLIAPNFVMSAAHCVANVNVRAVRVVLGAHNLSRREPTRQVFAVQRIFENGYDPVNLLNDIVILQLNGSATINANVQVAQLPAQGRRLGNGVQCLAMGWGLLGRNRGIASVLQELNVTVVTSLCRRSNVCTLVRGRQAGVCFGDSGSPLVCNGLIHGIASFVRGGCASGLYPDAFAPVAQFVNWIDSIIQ

T3: CathepsinG, from human neutrophils (human, UniProt P08311 21-244)
T3 sequence (looked up): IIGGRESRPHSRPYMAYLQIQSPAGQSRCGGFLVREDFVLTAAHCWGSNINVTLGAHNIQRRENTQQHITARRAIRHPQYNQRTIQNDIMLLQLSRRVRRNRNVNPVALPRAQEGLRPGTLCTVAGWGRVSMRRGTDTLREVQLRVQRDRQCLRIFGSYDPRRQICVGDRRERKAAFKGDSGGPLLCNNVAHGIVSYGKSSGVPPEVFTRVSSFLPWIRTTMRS

B1: Example 63 (peptide)
peptide: XCTKSDPPXCY
HELM: PEPTIDE1{[O=C([C@@H](N[*:1])C1CCCCC1)[*:2]].C.T.K.S.D.P.P.[Nle].C.Y.[dP].P}$PEPTIDE1,PEPTIDE1,2:R3-10:R3|PEPTIDE1,PEPTIDE1,1:R1-13:R2$$$V2.0
SMILES: CCCC[C@@H]1NC(=O)[C@@H]2CCCN2C(=O)[C@@H]2CCCN2C(=O)[C@H](CC(=O)O)NC(=O)[C@H](CO)NC(=O)[C@H](CCCCN)NC(=O)[C@H]([C@@H](C)O)NC(=O)[C@@H]2CSSC[C@H](NC1=O)C(=O)N[C@@H](Cc1ccc(O)cc1)C(=O)N1CCC[C@@H]1C(=O)N1CCC[C@H]1C(=O)N[C@@H](C1CCCCC1)C(=O)N2
B2: Example 40 (peptide)
peptide: XCTKSDPPICY
HELM: PEPTIDE1{[O=C([C@@H](N[*:1])C1CCCCC1)[*:2]].C.T.K.S.D.P.P.I.C.Y.[dP].P}$PEPTIDE1,PEPTIDE1,2:R3-10:R3|PEPTIDE1,PEPTIDE1,1:R1-13:R2$$$V2.0
SMILES: CC[C@H](C)[C@@H]1NC(=O)[C@@H]2CCCN2C(=O)[C@@H]2CCCN2C(=O)[C@H](CC(=O)O)NC(=O)[C@H](CO)NC(=O)[C@H](CCCCN)NC(=O)[C@H]([C@@H](C)O)NC(=O)[C@@H]2CSSC[C@H](NC1=O)C(=O)N[C@@H](Cc1ccc(O)cc1)C(=O)N1CCC[C@@H]1C(=O)N1CCC[C@H]1C(=O)N[C@@H](C1CCCCC1)C(=O)N2
B3: Example 4 (peptide)
peptide: FCTKSDPPICS
HELM: PEPTIDE1{F.C.T.K.S.D.P.P.I.C.S.[dP].P}$PEPTIDE1,PEPTIDE1,2:R3-10:R3|PEPTIDE1,PEPTIDE1,1:R1-13:R2$$$V2.0
SMILES: CC[C@H](C)[C@@H]1NC(=O)[C@@H]2CCCN2C(=O)[C@@H]2CCCN2C(=O)[C@H](CC(=O)O)NC(=O)[C@H](CO)NC(=O)[C@H](CCCCN)NC(=O)[C@H]([C@@H](C)O)NC(=O)[C@@H]2CSSC[C@H](NC1=O)C(=O)N[C@@H](CO)C(=O)N1CCC[C@@H]1C(=O)N1CCC[C@H]1C(=O)N[C@@H](Cc1ccccc1)C(=O)N2
B4: Example 44 (peptide)
peptide: XCTKSDPPICY
HELM: PEPTIDE1{[Nle].C.T.K.S.D.P.P.I.C.Y.[dP].P}$PEPTIDE1,PEPTIDE1,2:R3-10:R3|PEPTIDE1,PEPTIDE1,1:R1-13:R2$$$V2.0
SMILES: CCCC[C@@H]1NC(=O)[C@@H]2CCCN2C(=O)[C@H]2CCCN2C(=O)[C@H](Cc2ccc(O)cc2)NC(=O)[C@@H]2CSSC[C@H](NC1=O)C(=O)N[C@@H]([C@@H](C)O)C(=O)N[C@@H](CCCCN)C(=O)N[C@@H](CO)C(=O)N[C@@H](CC(=O)O)C(=O)N1CCC[C@H]1C(=O)N1CCC[C@H]1C(=O)N[C@@H]([C@@H](C)CC)C(=O)N2
B5: Example 5 (peptide)
peptide: FCTKSDPPICY
HELM: PEPTIDE1{F.C.T.K.S.D.P.P.I.C.Y.[dP].P}$PEPTIDE1,PEPTIDE1,2:R3-10:R3|PEPTIDE1,PEPTIDE1,1:R1-13:R2$$$V2.0
SMILES: CC[C@H](C)[C@@H]1NC(=O)[C@@H]2CCCN2C(=O)[C@@H]2CCCN2C(=O)[C@H](CC(=O)O)NC(=O)[C@H](CO)NC(=O)[C@H](CCCCN)NC(=O)[C@H]([C@@H](C)O)NC(=O)[C@@H]2CSSC[C@H](NC1=O)C(=O)N[C@@H](Cc1ccc(O)cc1)C(=O)N1CCC[C@@H]1C(=O)N1CCC[C@H]1C(=O)N[C@@H](Cc1ccccc1)C(=O)N2
B6: Example 46 (peptide)
peptide: FCTKSDPPICS
HELM: PEPTIDE1{F.C.T.K.S.D.P.P.I.C.S.[dD].P}$PEPTIDE1,PEPTIDE1,2:R3-10:R3|PEPTIDE1,PEPTIDE1,1:R1-13:R2$$$V2.0
SMILES: CC[C@H](C)[C@@H]1NC(=O)[C@@H]2CCCN2C(=O)[C@@H]2CCCN2C(=O)[C@H](CC(=O)O)NC(=O)[C@H](CO)NC(=O)[C@H](CCCCN)NC(=O)[C@H]([C@@H](C)O)NC(=O)[C@@H]2CSSC[C@H](NC1=O)C(=O)N[C@@H](CO)C(=O)N[C@H](CC(=O)O)C(=O)N1CCC[C@H]1C(=O)N[C@@H](Cc1ccccc1)C(=O)N2
B7: Example 47 (peptide)
peptide: FCTKSDPPICS
HELM: PEPTIDE1{F.C.T.K.S.D.P.P.I.C.S.[dP].D}$PEPTIDE1,PEPTIDE1,2:R3-10:R3|PEPTIDE1,PEPTIDE1,1:R1-13:R2$$$V2.0
SMILES: CC[C@H](C)[C@@H]1NC(=O)[C@@H]2CCCN2C(=O)[C@@H]2CCCN2C(=O)[C@H](CC(=O)O)NC(=O)[C@H](CO)NC(=O)[C@H](CCCCN)NC(=O)[C@H]([C@@H](C)O)NC(=O)[C@@H]2CSSC[C@H](NC1=O)C(=O)N[C@@H](CO)C(=O)N1CCC[C@@H]1C(=O)N[C@@H](CC(=O)O)C(=O)N[C@@H](Cc1ccccc1)C(=O)N2

Biological target: T1, Chymase, from human skin
Experiment: cell-based or functional assay

Row | Binder | % inhibition at 100 µM
1 | B1 | 7%
2 | B2 | 8%
3 | B3 | 0%
4 | B4 | 3%
5 | B5 | 0%
6 | B6 | 10.2%
7 | B7 | 8.2%

Biological target: T2, Elastase from human neutrophils
Experiment: cell-based or functional assay

Row | Binder | IC50
8 | B1 | > 100000 nmol
9 | B2 | > 44900 nmol
10 | B3 | > 100000 nmol
11 | B4 | > 10000 nmol
12 | B5 | > 100000 nmol
13 | B6 | > 100000 nmol
14 | B7 | > 10000 nmol

Biological target: Coagulation Factor Xa, from human plasma (human, UniProt P00742 41-488, limits assumed)
Sequence (P00742 41-488 limits assumed): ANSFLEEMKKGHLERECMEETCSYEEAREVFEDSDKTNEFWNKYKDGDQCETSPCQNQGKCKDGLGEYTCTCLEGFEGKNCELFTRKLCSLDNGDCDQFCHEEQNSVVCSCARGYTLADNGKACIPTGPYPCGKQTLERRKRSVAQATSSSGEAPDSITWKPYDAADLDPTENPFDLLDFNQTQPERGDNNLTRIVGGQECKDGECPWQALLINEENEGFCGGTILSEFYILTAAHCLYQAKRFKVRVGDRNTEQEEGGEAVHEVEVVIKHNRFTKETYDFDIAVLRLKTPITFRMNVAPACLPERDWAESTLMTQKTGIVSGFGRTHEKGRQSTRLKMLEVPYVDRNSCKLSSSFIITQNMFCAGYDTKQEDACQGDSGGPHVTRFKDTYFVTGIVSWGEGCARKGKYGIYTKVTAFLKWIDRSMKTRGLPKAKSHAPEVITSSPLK
Experiment: cell-based or functional assay

Row | Binder | % inhibition at 100 µM
15 | B1 | 0%
16 | B2 | 3%
17 | B3 | 2.4%
18 | B4 | 9%
19 | B5 | 0.2%
20 | B6 | 12.2%
21 | B7 | 9.3%

Biological target: Urokinase from human urine (human, UniProt P00749 21-431, limits assumed)
Experiment: cell-based or functional assay

Row | Binder | % inhibition at 100 µM
22 | B1 | 0%
23 | B2 | 10%
24 | B3 | 5.4%
25 | B4 | 14%
26 | B5 | 5.7%
27 | B6 | 5.8%
28 | B7 | 6.3%

Biological target: Trypsin, Iodination grade, from human pancreas (human, UniProt P07477 24-247)
Experiment: cell-based or functional assay

Row | Binder | % inhibition at 100 µM
29 | B1 | 96%
30 | B2 | 94%
31 | B3 | 96%
32 | B4 | 100%
33 | B5 | 92%
34 | B6 | 95%
35 | B7 | 87%

Biological target: Thrombin, from Human Plasma, high activity (human, UniProt P00734 328-622)
Experiment: cell-based or functional assay

Row | Binder | % inhibition at 100 µM
36 | B1 | 1%
37 | B2 | 1%
38 | B3 | 0%
39 | B4 | 9%
40 | B5 | 0.5%
41 | B6 | 6.9%
42 | B7 | 0%

Biological target: Chymotrypsin, from human pancreas (human, UniProt P17538 19-263)
Sequence (P17538 19-263): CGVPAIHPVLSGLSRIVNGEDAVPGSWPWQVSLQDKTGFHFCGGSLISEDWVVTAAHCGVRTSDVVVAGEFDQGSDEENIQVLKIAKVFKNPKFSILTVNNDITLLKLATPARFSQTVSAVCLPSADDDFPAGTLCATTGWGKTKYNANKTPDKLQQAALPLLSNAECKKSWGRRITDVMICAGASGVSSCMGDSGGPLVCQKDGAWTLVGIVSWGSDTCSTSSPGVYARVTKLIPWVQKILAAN
Experiment: cell-based or functional assay

Row | Binder | % inhibition at 100 µM
43 | B1 | 11%
44 | B2 | 19%
45 | B3 | 1.8%
46 | B4 | 24%
47 | B5 | 3%
48 | B6 | 0%
49 | B7 | 1%

Biological target: Tryptase, from human lung (human, UniProt Q15661 31-275, limits assumed)
Sequence (Q15661 31-275 limits assumed): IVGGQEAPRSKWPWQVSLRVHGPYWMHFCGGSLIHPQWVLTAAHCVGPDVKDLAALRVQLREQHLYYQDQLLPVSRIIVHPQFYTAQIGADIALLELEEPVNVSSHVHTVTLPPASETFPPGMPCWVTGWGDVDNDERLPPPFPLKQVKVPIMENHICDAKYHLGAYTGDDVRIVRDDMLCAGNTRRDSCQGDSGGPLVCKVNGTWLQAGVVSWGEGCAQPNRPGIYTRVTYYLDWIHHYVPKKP
Experiment: cell-based or functional assay

Row | Binder | % inhibition at 100 µM
50 | B1 | 50%
51 | B2 | 33%
52 | B3 | 0%
53 | B4 | 50%
54 | B5 | 74%
55 | B6 | 44.1%
56 | B7 | 0%

Biological target: T3, CathepsinG, from human neutrophils
Experiment: cell-based or functional assay

Row | Binder | IC50
57 | B1 | 41 nmol
58 | B2 | 25 nmol
59 | B3 | 91 nmol
60 | B4 | 31 nmol
61 | B5 | 56 nmol
62 | B6 | 87.5 nmol
63 | B7 | 64 nmol
